We go through 125 sequences from the supplement of paper PMC9112550, “Optimization of the antimicrobial peptide Bac7 by deep mutational scanning” (BMC Biology, 2022).
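Further: peptides expressed intracellularly from a pBAD plasmid library in pooled LB shake-flask culture, induced with 0.3% L-arabinose, DNA abundance read by NGS, three biological replicates, DESeq2 with apeglm shrinkage.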

The subject of the data set is Escherichia coli TOP10. In words: shrunken log2 fold change of peptide-encoding DNA abundance (4.5 h post-induction vs induction); higher = less antimicrobial activity (less host growth inhibition). The settings on record: time post-induction: 4.5 h; library: site-saturation at positions 5, 18, 19, 20.
Turning to RRIRKRPPRLPRPRPRPYDRPRP, the “shrunken log2 fold change” value was determined as 0.192.

Take RRIRCRPPRLPRPRPRPVTNPRP: the “shrunken log2 fold change” value was -0.0299.

As to RRIRFRPPRLPRPRPRPQESPRP, the “shrunken log2 fold change” value is 0.124.

As for RRIRPRPPRLPRPRPRPWYWPRP, the “shrunken log2 fold change” value is -0.161.

Consider RRIRKRPPRLPRPRPRPYLPPRP, for which the “shrunken log2 fold change” value was -0.354.

For the sequence RRIRVRPPRLPRPRPRPREGPRP, the “shrunken log2 fold change” value amounted to 0.307.

For RRIRIRPPRLPRPRPRPDVYPRP, the “shrunken log2 fold change” value is -0.571.

In the case of RRIRIRPPRLPRPRPRPIEDPRP, the “shrunken log2 fold change” value was 0.0806.

On to RRIRDRPPRLPRPRPRPMLYPRP, for which the “shrunken log2 fold change” value was -0.0839.

Regarding RRIRARPPRLPRPRPRPQMGPRP, the “shrunken log2 fold change” value is -0.0713.

In the case of RRIRLRPPRLPRPRPRPFSRPRP, the “shrunken log2 fold change” value is -0.199.

Regarding RRIRGRPPRLPRPRPRPEIWPRP, the “shrunken log2 fold change” value is 1.34.

For RRIRMRPPRLPRPRPRPIKRPRP, the “shrunken log2 fold change” value stood at 0.0532.

As for RRIRVRPPRLPRPRPRPYVDPRP, the “shrunken log2 fold change” value was -0.0757.

Consider RRIRARPPRLPRPRPRPEIWPRP, for which the “shrunken log2 fold change” value came to 1.55.

Regarding RRIRNRPPRLPRPRPRPVEPPRP, the “shrunken log2 fold change” value worked out at 0.173.

For the sequence RRIRYRPPRLPRPRPRPHFVPRP, the “shrunken log2 fold change” value is -0.182.

Regarding RRIRKRPPRLPRPRPRPLWNPRP, the “shrunken log2 fold change” value turned out to be 0.109.

RRIRIRPPRLPRPRPRPVYDPRP: the “shrunken log2 fold change” value was -0.0144.

Turning to RRIRCRPPRLPRPRPRPTKEPRP, the “shrunken log2 fold change” value is -0.0808.

On to RRIRQRPPRLPRPRPRPMESPRP, for which the “shrunken log2 fold change” value is -0.0548.

For RRIRIRPPRLPRPRPRPNLQPRP, the “shrunken log2 fold change” value is -0.285.

For the sequence RRIRKRPPRLPRPRPRPRDQPRP, the “shrunken log2 fold change” value came out at 0.000671.

For RRIRQRPPRLPRPRPRPCVCPRP, the “shrunken log2 fold change” value was -0.0231.

On to RRIRHRPPRLPRPRPRPMKRPRP, for which the “shrunken log2 fold change” value worked out at 0.0794.

Turning to RRIRMRPPRLPRPRPRPMCTPRP, the “shrunken log2 fold change” value is -0.0175.

Consider RRIRTRPPRLPRPRPRPWHIPRP, for which the “shrunken log2 fold change” value is -0.115.

Take RRIRWRPPRLPRPRPRPYGTPRP: the “shrunken log2 fold change” value was -0.232.

Turning to RRIRLRPPRLPRPRPRPCMTPRP, the “shrunken log2 fold change” value amounted to 0.0964.

RRIRCRPPRLPRPRPRPNLRPRP: the “shrunken log2 fold change” value is -0.315.

On to RRIRMRPPRLPRPRPRPAAFPRP, for which the “shrunken log2 fold change” value worked out at 0.503.

Turning to RRIRERPPRLPRPRPRPIDMPRP, the “shrunken log2 fold change” value is -0.123.

In the case of RRIRMRPPRLPRPRPRPGARPRP, the “shrunken log2 fold change” value was determined as 1.11.

As for RRIRERPPRLPRPRPRPTAQPRP, the “shrunken log2 fold change” value is 0.416.

Take RRIRCRPPRLPRPRPRPEAWPRP: the “shrunken log2 fold change” value was 0.976.

Consider RRIRNRPPRLPRPRPRPFLPPRP, for which the “shrunken log2 fold change” value was -0.354.

With RRIRCRPPRLPRPRPRPSNPPRP, the “shrunken log2 fold change” value was 0.442.

On to RRIRIRPPRLPRPRPRPKREPRP, for which the “shrunken log2 fold change” value is 0.0342.

With RRIRKRPPRLPRPRPRPGRCPRP, the “shrunken log2 fold change” value turned out to be 0.586.

On to RRIRKRPPRLPRPRPRPFRLPRP, for which the “shrunken log2 fold change” value stood at 0.0113.

As to RRIRTRPPRLPRPRPRPGAHPRP, the “shrunken log2 fold change” value was determined as 0.0457.

For the sequence RRIRYRPPRLPRPRPRPHDNPRP, the “shrunken log2 fold change” value was -1.04.

In the case of RRIRCRPPRLPRPRPRPFFDPRP, the “shrunken log2 fold change” value is -0.199.

As for RRIRCRPPRLPRPRPRPPCMPRP, the “shrunken log2 fold change” value was -0.159.

For the sequence RRIRLRPPRLPRPRPRPCAEPRP, the “shrunken log2 fold change” value worked out at 0.395.

With RRIRYRPPRLPRPRPRPINDPRP, the “shrunken log2 fold change” value was -0.0981.

For RRIRGRPPRLPRPRPRPYQFPRP, the “shrunken log2 fold change” value is -0.297.

On to RRIRARPPRLPRPRPRPYTPPRP, for which the “shrunken log2 fold change” value was -0.373.

In the case of RRIRNRPPRLPRPRPRPVIRPRP, the “shrunken log2 fold change” value is -0.164.

As to RRIRTRPPRLPRPRPRPHAGPRP, the “shrunken log2 fold change” value is -0.0835.

On to RRIRVRPPRLPRPRPRPQFIPRP, for which the “shrunken log2 fold change” value is -0.128.

On to RRIRYRPPRLPRPRPRPLWEPRP, for which the “shrunken log2 fold change” value is -0.369.

For RRIRGRPPRLPRPRPRPFTGPRP, the “shrunken log2 fold change” value is -0.186.

Take RRIRPRPPRLPRPRPRPGVKPRP: the “shrunken log2 fold change” value is -0.0608.

RRIRTRPPRLPRPRPRPTWAPRP: the “shrunken log2 fold change” value was -0.117.

With RRIRWRPPRLPRPRPRPPIHPRP, the “shrunken log2 fold change” value is -0.448.

RRIRVRPPRLPRPRPRPQWNPRP: the “shrunken log2 fold change” value is -0.386.

For the sequence RRIRPRPPRLPRPRPRPKSNPRP, the “shrunken log2 fold change” value is -0.37.

As for RRIRPRPPRLPRPRPRPACVPRP, the “shrunken log2 fold change” value worked out at 0.26.

In the case of RRIRYRPPRLPRPRPRPTPVPRP, the “shrunken log2 fold change” value was -0.0457.

As for RRIRLRPPRLPRPRPRPHQNPRP, the “shrunken log2 fold change” value was -0.149.

As for RRIRNRPPRLPRPRPRPCFAPRP, the “shrunken log2 fold change” value stood at 0.0964.

Regarding RRIRYRPPRLPRPRPRPQEVPRP, the “shrunken log2 fold change” value is 0.013.

As to RRIRYRPPRLPRPRPRPILYPRP, the “shrunken log2 fold change” value is -0.679.

Take RRIRFRPPRLPRPRPRPEWDPRP: the “shrunken log2 fold change” value was found to be 0.168.

As for RRIRGRPPRLPRPRPRPTIIPRP, the “shrunken log2 fold change” value was -0.026.

Regarding RRIRPRPPRLPRPRPRPVRGPRP, the “shrunken log2 fold change” value came to 0.898.

On to RRIRMRPPRLPRPRPRPVDSPRP, for which the “shrunken log2 fold change” value is 0.216.

Take RRIRIRPPRLPRPRPRPWENPRP: the “shrunken log2 fold change” value was -0.00674.

On to RRIRNRPPRLPRPRPRPTARPRP, for which the “shrunken log2 fold change” value is 0.198.

For RRIRGRPPRLPRPRPRPFLVPRP, the “shrunken log2 fold change” value was -0.0616.

Consider RRIRERPPRLPRPRPRPLQIPRP, for which the “shrunken log2 fold change” value is -0.0796.

With RRIRQRPPRLPRPRPRPGVCPRP, the “shrunken log2 fold change” value is -0.126.

Regarding RRIRYRPPRLPRPRPRPFPEPRP, the “shrunken log2 fold change” value was -0.423.

As for RRIRRRPPRLPRPRPRPAAFPRP, the “shrunken log2 fold change” value came out at 0.967.

Take RRIRTRPPRLPRPRPRPQTWPRP: the “shrunken log2 fold change” value was -0.18.

For RRIRNRPPRLPRPRPRPWQSPRP, the “shrunken log2 fold change” value was -0.0702.

As for RRIRFRPPRLPRPRPRPVVIPRP, the “shrunken log2 fold change” value was 0.0715.

Turning to RRIRIRPPRLPRPRPRPDIVPRP, the “shrunken log2 fold change” value is -0.906.

On to RRIRQRPPRLPRPRPRPMMTPRP, for which the “shrunken log2 fold change” value turned out to be 0.0172.

For the sequence RRIRTRPPRLPRPRPRPIFVPRP, the “shrunken log2 fold change” value is 0.144.

Turning to RRIRERPPRLPRPRPRPPAWPRP, the “shrunken log2 fold change” value stood at 0.0898.

With RRIRTRPPRLPRPRPRPNFVPRP, the “shrunken log2 fold change” value was found to be 0.0615.

In the case of RRIRIRPPRLPRPRPRPQQFPRP, the “shrunken log2 fold change” value is -0.709.

Regarding RRIRKRPPRLPRPRPRPYNSPRP, the “shrunken log2 fold change” value is -0.49.

RRIRLRPPRLPRPRPRPLANPRP: the “shrunken log2 fold change” value is -0.00613.

As to RRIRFRPPRLPRPRPRPERVPRP, the “shrunken log2 fold change” value came to 0.094.

For the sequence RRIRGRPPRLPRPRPRPYIYPRP, the “shrunken log2 fold change” value was -0.13.

With RRIRHRPPRLPRPRPRPRMGPRP, the “shrunken log2 fold change” value was -0.00555.

Take RRIRGRPPRLPRPRPRPKWQPRP: the “shrunken log2 fold change” value was determined as 0.194.

On to RRIRNRPPRLPRPRPRPECEPRP, for which the “shrunken log2 fold change” value is -0.0156.

On to RRIRFRPPRLPRPRPRPNSMPRP, for which the “shrunken log2 fold change” value was -1.01.

Take RRIRPRPPRLPRPRPRPKEVPRP: the “shrunken log2 fold change” value was -0.0501.

As for RRIRQRPPRLPRPRPRPGTFPRP, the “shrunken log2 fold change” value is -0.499.

For the sequence RRIRTRPPRLPRPRPRPIHNPRP, the “shrunken log2 fold change” value is -0.714.

As to RRIRWRPPRLPRPRPRPNRYPRP, the “shrunken log2 fold change” value amounted to 0.0333.

As to RRIRCRPPRLPRPRPRPPLHPRP, the “shrunken log2 fold change” value stood at 0.135.

Turning to RRIRIRPPRLPRPRPRPQQEPRP, the “shrunken log2 fold change” value was -0.056.

Regarding RRIRMRPPRLPRPRPRPRHRPRP, the “shrunken log2 fold change” value amounted to 0.249.

RRIRKRPPRLPRPRPRPNYHPRP: the “shrunken log2 fold change” value was -0.331.

Turning to RRIRARPPRLPRPRPRPKPCPRP, the “shrunken log2 fold change” value was 0.162.

As for RRIRWRPPRLPRPRPRPKAMPRP, the “shrunken log2 fold change” value turned out to be 0.176.

In the case of RRIRMRPPRLPRPRPRPHCYPRP, the “shrunken log2 fold change” value was -0.0522.

As to RRIRWRPPRLPRPRPRPTVTPRP, the “shrunken log2 fold change” value amounted to 0.0889.

As to RRIRVRPPRLPRPRPRPKQCPRP, the “shrunken log2 fold change” value is -0.141.

With RRIRQRPPRLPRPRPRPQYWPRP, the “shrunken log2 fold change” value is -0.0582.

On to RRIRDRPPRLPRPRPRPQVGPRP, for which the “shrunken log2 fold change” value turned out to be 0.132.

For the sequence RRIRSRPPRLPRPRPRPPDGPRP, the “shrunken log2 fold change” value was found to be 0.447.

Turning to RRIRQRPPRLPRPRPRPKLRPRP, the “shrunken log2 fold change” value is -0.0665.

Consider RRIRGRPPRLPRPRPRPQMGPRP, for which the “shrunken log2 fold change” value stood at 0.339.

On to RRIRDRPPRLPRPRPRPGITPRP, for which the “shrunken log2 fold change” value worked out at 0.297.

For RRIRRRPPRLPRPRPRPGKMPRP, the “shrunken log2 fold change” value was found to be 0.0473.

As for RRIRDRPPRLPRPRPRPWITPRP, the “shrunken log2 fold change” value was -0.123.

In the case of RRIRGRPPRLPRPRPRPKINPRP, the “shrunken log2 fold change” value came to 0.426.

On to RRIRVRPPRLPRPRPRPTPLPRP, for which the “shrunken log2 fold change” value was found to be 0.251.

On to RRIRYRPPRLPRPRPRPRCNPRP, for which the “shrunken log2 fold change” value is -0.552.

Consider RRIRMRPPRLPRPRPRPHQWPRP, for which the “shrunken log2 fold change” value was determined as 0.121.

On to RRIRLRPPRLPRPRPRPRMSPRP, for which the “shrunken log2 fold change” value was -1.

As to RRIRRRPPRLPRPRPRPARPPRP, the “shrunken log2 fold change” value turned out to be 0.703.

For the sequence RRIRFRPPRLPRPRPRPWILPRP, the “shrunken log2 fold change” value is -0.144.

Take RRIRARPPRLPRPRPRPKRFPRP: the “shrunken log2 fold change” value was found to be 0.249.

In the case of RRIRIRPPRLPRPRPRPECPPRP, the “shrunken log2 fold change” value was -0.0846.

In the case of RRIRGRPPRLPRPRPRPQYNPRP, the “shrunken log2 fold change” value is -0.0557.

With RRIRTRPPRLPRPRPRPATLPRP, the “shrunken log2 fold change” value was -0.197.

For RRIRIRPPRLPRPRPRPYPMPRP, the “shrunken log2 fold change” value was -0.0519.
